The results in this text go back to PMC9441902.

The target in the assay is LrsL (quorum quenching lactonase of Labrenzia sp. VG12), recombinant catalytic domain without the N-terminal 47 residues (Labrenzia sp. VG12). The experiment in a line: SEC-MALS; Superdex 200 10/300; 5.5 mg/ml LrsL injected; 20 mM HEPES, pH 7.5, 200 mM NaCl, 1 mM TCEP, 0.01% NaN3. Background: SEC sorts molecules by how far they enter the pores of the column.

In general, stoichiometry N refers to the number of molecules, sites or subunits per partner or assembly. For “LrsL (quorum quenching lactonase of Labrenzia sp. VG12), recombinant catalytic domain without the N-terminal 47 residues (enzyme)”, the stoichiometry N is 2.
